Experimental data reported in US11466286B2, “Methods and compositions for conferring and/or enhancing herbicide tolerance using protoporphyrinogen oxidase or variant thereof” (FarmHannong Co., Ltd., priority 2016, dated 2022).
Numbering of substitutions follows the chain as printed. Names and notes keep the numbering of the source.

B1: CyPPO13 F373T: CyPPO13 (SEQ ID NO: 4) PPO variant (protein)
chain: MNPATPEPLNAEVVVIGAGISGLTLAWRLQQGLSARGGSPQAVLLAEASSRVGGCISTQSKDGYRWEEGPNSFTPTPALLNLIAEVGLTDQLVLADAKLPRYIYWEGALLPVPLSPAAALGSRLLSVGGKLRALQGLLGFVPPPPGHEETVRQFFRRQLGSEVAERLVEPFTSGVYAGDPDQLSAVAAFPRVAGLEERYGSLFAGALQALRQRPQPSPAAIQPPPKRGQLGNLRQGLQQLPEALAQKLGDSLRLGWRALQLKRAGELYWVGFETPEGSRWVAARQVVLALPAYEAAALLQELNPPASQLLAEILYPPVAVVALAYPQEALPQPLRGFGHLIPRSQGLRTLGTIWASCLFPERAPQGYHSFLSTLGGATDAALARRRGIPPIPALSPEERAQIAHAELSQVLLTRRAEPVYLGERLWPRAIPQYTLGHRQRIAQVQAHLASQTPGIWVCANYLDGVALGDCVRRAEALAQQLLSQV
modifications: Synthetic CyPPO13
B2: CyPPO13 F373H: CyPPO13 (SEQ ID NO: 4) PPO variant (protein)
chain: B1 chain with T373H
modifications: Synthetic CyPPO13
B3: CyPPO13 F373N: CyPPO13 (SEQ ID NO: 4) PPO variant (protein)
chain: B1 chain with T373N
modifications: Synthetic CyPPO13
B4: CyPPO13 R101A + F373M: CyPPO13 (SEQ ID NO: 4) PPO variant (protein)
chain: B1 chain with R101A, T373M
modifications: Synthetic CyPPO13
B5: CyPPO13 A177C + F373M: CyPPO13 (SEQ ID NO: 4) PPO variant (protein)
chain: B1 chain with A177C, T373M
modifications: Synthetic CyPPO13
B6: CyPPO13 A177I + F373M: CyPPO13 (SEQ ID NO: 4) PPO variant (protein)
chain: B1 chain with A177I, T373M
modifications: Synthetic CyPPO13
B7: CyPPO13 A177L + F373M: CyPPO13 (SEQ ID NO: 4) PPO variant (protein)
chain: B1 chain with A177L, T373M
modifications: Synthetic CyPPO13
B8: CyPPO13 V175L + F373M: CyPPO13 (SEQ ID NO: 4) PPO variant (protein)
chain: B1 chain with V175L, T373M
modifications: Synthetic CyPPO13
B9: CyPPO13 V318M + F373M: CyPPO13 (SEQ ID NO: 4) PPO variant (protein)
chain: B1 chain with V318M, T373M
modifications: Synthetic CyPPO13
B10: CyPPO13 A177L + F373T: CyPPO13 (SEQ ID NO: 4) PPO variant (protein)
chain: B1 chain with A177L
modifications: Synthetic CyPPO13
B11: CyPPO13 A177L + F373V: CyPPO13 (SEQ ID NO: 4) PPO variant (protein)
chain: B1 chain with A177L, T373V
modifications: Synthetic CyPPO13
B12: CyPPO13 A177C + F373T: CyPPO13 (SEQ ID NO: 4) PPO variant (protein)
chain: B1 chain with A177C
modifications: Synthetic CyPPO13
B13: CyPPO13 A177C + F373V: CyPPO13 (SEQ ID NO: 4) PPO variant (protein)
chain: B1 chain with A177C, T373V
modifications: Synthetic CyPPO13
B14: CyPPO13 G194E + F373M: CyPPO13 (SEQ ID NO: 4) PPO variant (protein)
chain: B1 chain with G194E, T373M
modifications: Synthetic CyPPO13
B15: CyPPO13 G194Q + F373M: CyPPO13 (SEQ ID NO: 4) PPO variant (protein)
chain: B1 chain with G194Q, T373M
modifications: Synthetic CyPPO13
B16: CyPPO13 G194M + F373M: CyPPO13 (SEQ ID NO: 4) PPO variant (protein)
chain: B1 chain with G194M, T373M
modifications: Synthetic CyPPO13
B17: CyPPO13 G194K + F373M: CyPPO13 (SEQ ID NO: 4) PPO variant (protein)
chain: B1 chain with G194K, T373M
modifications: Synthetic CyPPO13
B18: CyPPO13 G194R + F373M: CyPPO13 (SEQ ID NO: 4) PPO variant (protein)
chain: B1 chain with G194R, T373M
modifications: Synthetic CyPPO13
B19: CyPPO13 R101A: CyPPO13 (SEQ ID NO: 4) PPO variant (protein)
chain: B1 chain with R101A, T373F
modifications: Synthetic CyPPO13
B20: CyPPO13 F171A: CyPPO13 (SEQ ID NO: 4) PPO variant (protein)
chain: B1 chain with F171A, T373F
modifications: Synthetic CyPPO13
B21: CyPPO13 V175C: CyPPO13 (SEQ ID NO: 4) PPO variant (protein)
chain: B1 chain with V175C, T373F
modifications: Synthetic CyPPO13
B22: CyPPO13 A177L: CyPPO13 (SEQ ID NO: 4) PPO variant (protein)
chain: B1 chain with A177L, T373F
modifications: Synthetic CyPPO13
B23: CyPPO13 V318M: CyPPO13 (SEQ ID NO: 4) PPO variant (protein)
chain: B1 chain with V318M, T373F
modifications: Synthetic CyPPO13
B24: CyPPO13 F337V: CyPPO13 (SEQ ID NO: 4) PPO variant (protein)
chain: B1 chain with F337V, T373F
modifications: Synthetic CyPPO13
B25: CyPPO13 E340T: CyPPO13 (SEQ ID NO: 4) PPO variant, printed E340T, probably L340T (protein)
chain: B1 chain with L340T, T373F
modifications: Synthetic CyPPO13
B26: CyPPO13 I353T: CyPPO13 (SEQ ID NO: 4) PPO variant (protein)
chain: B1 chain with I353T, T373F
modifications: Synthetic CyPPO13

System: CyPPO13
Test: PPO enzyme activity and IC50 by herbicides, CyPPO13 wild type and variants (MBP-PPO fusion)
Assay type: biochemical, Synechococcus sp. JA-3-3Ab
Details: PPO enzyme activity of CyPPO13 protein, wild type = 100
Protocol: The enzyme activities of PPO protein and PPO protein variants were examined, and inhibition assay by PPO-inhibiting herbicides was conducted. It was confirmed that the PPO protein has low water-solubility, but in case of being expressed as a fusion protein with MBP (maltose binding protein) (MBP-PPO), the PPO protein is able to be stably expressed as water-soluble form. Therefore, the wild type and variant proteins which were expressed in the form of fusion protein with MBP were used in the present test (refer to FIG. 4).
In order to express wild type genes and mutant genes of CyPPO10 and CyPPO13 (refer to Example 1 and Example 4), those genes were introduced to pMAL-c2X vector (refer to FIG. 5) respectively, and then cloned to BL21 (DE3) E. coli (CodonPlus).
The enzyme activity of the purified wild type protein and variant proteins of CyPPO10 and CyPPO13 was measured by the following process.
At first, a substrate of PPO protein, Protoporphyrinogen IX was synthesized. This process was performed in the space where nitrogen gas is streamed. 6 mg of protoporphyrin IX was dissolved in 20% (v/v) EtOH 20 ml, and stirred under dark condition for 30 minutes. The obtained protoporphyrinogen IX solution was put into a 15 ml screw tube in an amount of 800 and flushed with nitrogen gas for 5 minutes. To this, 1 g of sodium amalgam was added and vigorous shaking was performed for 2 minutes. The lid was open to exhaust hydrogen gas in the tube. Thereafter, the lid was closed and incubated for 3 minutes. The […] was filtered using syringe and cellulose membrane filter. To 600 μl of the obtained […], 2M MOPS [3-(N-morpholino)propanesulfonic acid] was added in an amount of approximately 300 thereby adjusting pH to 8.0. To determine the enzyme activity of PPO protein, a reaction mixture was prepared with the following composition (based on 10 ml): 50 mM Tris-Cl (pH 8.0); 50 mM NaCl; 0.04% (v/v) Tween 20; 40 mM glucose (0.072 g); 5 units glucose oxidase (16.6 mg); and 10 units catalase (1 μl).
Two hundred microliters (200 μl) of reaction mixture containing a purified PPO protein were placed in 96 well plates, and preincubated for 30 min at room temperature to reduce the oxygen concentration by the reaction of glucose oxidase-catalase. The mineral oil was layered and then the reaction was initiated by adding the substrate, […], to a final concentration of 50 μM. The reaction proceeded at room temperature for 30 min and the fluorescence of protoporphyrin IX was measured using Microplate reader (Sense, Hidex) (excitation: 405 nm; emission: 633 nm). To calculate the PPO enzyme activity, protoporphyrinogen IX solution was kept open in the air to oxidize the solution (overnight). To this, 2.7N HCl was added, and the absorbance at 408 nm was measured. A standard curve was generated using standard protoporphyrin IX, and the PPO activity was measured by calibration of protoporphyrin IX using the standard curve of protoporphyrin IX.
The final concentration of each herbicide was as follows: […]

| Molecule | Activity (%) |
| --- | --- |
| B1 | 81 |
| B2 | 26 |
| B3 | 40 |
| B4 | 55 |
| B5 | 77 |
| B6 | 75 |
| B7 | 75 |
| B8 | 93 |
| B9 | 72 |
| B10 | 62 |
| B11 | 49 |
| B12 | 80 |
| B13 | 56 |
| B14 | 32 |
| B15 | 37 |
| B16 | 43 |
| B17 | 41 |
| B18 | 35 |
| B19 | 87 |
| B20 | 70 |
| B21 | 94 |
| B22 | 97 |
| B23 | 81 |
| B24 | 88 |
| B25 | 83 |
| B26 | 62 |
